Consider one molecule from article PMC12155429, “PTPA Governs Stress-Responsive Differentiation and Metabolic Homeostasis in Toxoplasma gondii” (Cells, 2025).

The target of this assay is T1, pMAL–PP2AA–His (Toxoplasma gondii PP2A A subunit) (Toxoplasma gondii, UniProt S8EX93 1-766).
T1 construct: PP2A A subunit of Toxoplasma gondii (TGME49_315670), amplified from Toxoplasma cDNA; printed length 766 aa, ~130 kDa with the pMAL tag; also called PP2A scaffold (A) subunit; source: E. coli, purified (MBPSep Dextrin Agarose Resin, eluted with 10 mM maltose); not shown: MBP (from the vector pMAL)
T1 sequence (looked up): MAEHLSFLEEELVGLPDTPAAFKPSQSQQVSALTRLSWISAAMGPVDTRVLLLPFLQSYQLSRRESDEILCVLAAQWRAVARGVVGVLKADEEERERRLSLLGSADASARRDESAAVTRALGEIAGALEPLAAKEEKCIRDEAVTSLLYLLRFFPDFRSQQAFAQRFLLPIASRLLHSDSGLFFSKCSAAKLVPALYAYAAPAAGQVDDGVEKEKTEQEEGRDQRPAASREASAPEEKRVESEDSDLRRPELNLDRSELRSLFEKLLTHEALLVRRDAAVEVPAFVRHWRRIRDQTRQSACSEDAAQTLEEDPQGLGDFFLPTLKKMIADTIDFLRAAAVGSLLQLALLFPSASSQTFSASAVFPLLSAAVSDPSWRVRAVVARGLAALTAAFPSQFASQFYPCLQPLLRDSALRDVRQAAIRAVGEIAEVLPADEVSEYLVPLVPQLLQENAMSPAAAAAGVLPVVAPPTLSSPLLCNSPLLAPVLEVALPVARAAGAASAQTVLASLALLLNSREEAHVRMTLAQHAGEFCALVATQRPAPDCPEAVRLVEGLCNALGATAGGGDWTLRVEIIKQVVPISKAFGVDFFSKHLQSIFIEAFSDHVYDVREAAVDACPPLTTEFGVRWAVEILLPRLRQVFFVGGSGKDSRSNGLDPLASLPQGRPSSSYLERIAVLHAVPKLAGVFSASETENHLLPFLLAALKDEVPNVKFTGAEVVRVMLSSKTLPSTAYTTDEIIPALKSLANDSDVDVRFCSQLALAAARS
In words: pull-down; anti-His or anti-HA magnetic beads washed with TBS, incubated with the tagged protein 5 h at 4 °C, then with the target protein 5 h; washed, eluted, Western blot. Particulars: both partners purified. In general terms: In western blotting, separated proteins are transferred to a membrane and probed.

B1: pMAL–PP2AC–HA (Toxoplasma gondii PP2A C subunit) (enzyme, UniProt A0A125YNB3 1-347, looked up)
chain: MSGATPGAVAALQPASAAPALFTIPADVAPSDLPDHYLGQEELRGIDKQMEKLFKCEKLDEEEVRSLCAVLKDILVQEANVQPVRTPVTVVGDIHGQFHDLLEIFKCAGTCPSVNFLFLGDYVDRGLNSVESVSLVFLLKVRYRHRVTLIRGNHESRQITQVYGFYDECLRKYGNANVWNYFTDVFDYLPLSALIEDQIFCPHAGLSPTIETLDHVRLLERFQEVPHEGPMCDLLWSDPEEQMPGWGMSPRGAGYTFGQDISEKFNHVNGLKLIARAHQLIMEGFQWSQANNVVTIFSAPNYCYRCGNQAAIMKIDEHMNYTFIQFNPSLLQASGADMQKRIPDYFL
notes: PP2A C subunit of Toxoplasma gondii (TGME49_224220), amplified from Toxoplasma cDNA; printed length 347 aa, ~80 kDa with the pMAL tag; also called PP2A catalytic (C) subunit; source: E. coli, purified (MBPSep Dextrin Agarose Resin, eluted with 10 mM maltose); not shown: MBP (from the vector pMAL)
In the case of B1, the binding result was “binds”.
